Data published in patent US20240109954A1 (GENERAL HOSPITAL, published 2024).
Changes are numbered by the printed parent chain. In names and notes the source's numbering stands.

Legend:
mouse FcγRIII = target: T1, mouse FcγRIII (mouse, UniProt P08508 31-215); assay: BLI, mAb on anti-human Fab-CH1 sensor, FcγR in solution
T1 construct: also called mFcγRIII; mFcγR3
T1 sequence: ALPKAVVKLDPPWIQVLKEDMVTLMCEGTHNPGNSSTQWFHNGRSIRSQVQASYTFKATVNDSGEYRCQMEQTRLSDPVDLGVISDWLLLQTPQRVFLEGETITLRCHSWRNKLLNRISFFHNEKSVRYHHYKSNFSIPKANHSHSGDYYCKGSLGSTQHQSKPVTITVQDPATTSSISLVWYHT

mouse FcγRI = target: T2, mouse FcγRI (mouse, UniProt P26151 25-297); assay: as above
T2 construct: also called mFcγRI
T2 sequence: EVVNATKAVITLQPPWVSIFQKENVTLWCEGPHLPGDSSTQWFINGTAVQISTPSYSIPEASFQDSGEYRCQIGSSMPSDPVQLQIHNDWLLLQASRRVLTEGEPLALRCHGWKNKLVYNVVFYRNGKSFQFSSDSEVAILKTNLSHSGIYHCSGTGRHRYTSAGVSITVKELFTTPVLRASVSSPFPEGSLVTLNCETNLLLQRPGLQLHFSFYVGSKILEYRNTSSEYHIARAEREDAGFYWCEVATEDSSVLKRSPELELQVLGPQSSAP

mouse FcγRIIb [1] = target: T3, mouse FcγRIIb (mouse, UniProt P08101 30-210); assay: as above
T3 construct: also called mFcγRIIb; mFcγR2b
T3 sequence: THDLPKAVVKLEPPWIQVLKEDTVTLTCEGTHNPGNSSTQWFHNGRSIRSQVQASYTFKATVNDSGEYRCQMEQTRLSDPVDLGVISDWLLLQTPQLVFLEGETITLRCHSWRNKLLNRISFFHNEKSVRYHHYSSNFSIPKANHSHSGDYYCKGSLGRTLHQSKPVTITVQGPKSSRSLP

mouse FcγRIV [2] = target: T4, mouse FcγRIV (mouse, UniProt A0A0B4J1G0 21-203); assay: as above
T4 construct: also called mFcγRIV
T4 sequence: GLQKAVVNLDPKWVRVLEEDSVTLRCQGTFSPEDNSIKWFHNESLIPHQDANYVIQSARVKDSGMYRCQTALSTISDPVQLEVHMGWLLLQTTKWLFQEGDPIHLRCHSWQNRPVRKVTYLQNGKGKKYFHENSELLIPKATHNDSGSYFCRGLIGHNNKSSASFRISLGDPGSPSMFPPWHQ

human FcγR2A (R131) [3] = target: T5, human FcγR2A (R131) (human, UniProt P12318 34-217); assay: SPR, mAb printed on chip, FcγR injected
T5 construct: also called huFcγR2A
T5 sequence: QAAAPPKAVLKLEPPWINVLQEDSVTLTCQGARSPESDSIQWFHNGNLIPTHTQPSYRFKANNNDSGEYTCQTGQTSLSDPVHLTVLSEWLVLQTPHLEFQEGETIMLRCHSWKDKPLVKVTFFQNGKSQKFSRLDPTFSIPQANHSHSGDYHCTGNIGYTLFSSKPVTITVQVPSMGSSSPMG

human FcγR2B = target: T6, human FcγR2B (human, UniProt P31994 43-217); assay: SPR, mAb printed on chip, FcγR injected
T6 construct: also called huFcγR2B
T6 sequence: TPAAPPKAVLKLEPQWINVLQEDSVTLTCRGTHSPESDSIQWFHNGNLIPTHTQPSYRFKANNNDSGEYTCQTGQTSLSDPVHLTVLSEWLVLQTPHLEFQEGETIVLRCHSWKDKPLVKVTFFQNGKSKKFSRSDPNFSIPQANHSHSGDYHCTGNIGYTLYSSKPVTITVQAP

human FcγR3B [4] = target: T7, human FcγR3B (human, UniProt O75015 17-200); assay: SPR, mAb printed on chip, FcγR injected
T7 construct: also called huFcγR3B
T7 sequence (O75015 17-200): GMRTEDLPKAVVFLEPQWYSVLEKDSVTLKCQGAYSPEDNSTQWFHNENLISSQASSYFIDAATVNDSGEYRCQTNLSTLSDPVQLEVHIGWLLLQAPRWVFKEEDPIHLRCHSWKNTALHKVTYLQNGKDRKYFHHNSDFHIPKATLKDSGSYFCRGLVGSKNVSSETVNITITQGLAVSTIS

human FcγR3A (F158) = target: T8, human FcγR3A (F158) (human, UniProt P08637 17-208); assay: SPR, mAb printed on chip, FcγR injected
T8 construct: also called huFcγR3A
T8 sequence (P08637 17-208): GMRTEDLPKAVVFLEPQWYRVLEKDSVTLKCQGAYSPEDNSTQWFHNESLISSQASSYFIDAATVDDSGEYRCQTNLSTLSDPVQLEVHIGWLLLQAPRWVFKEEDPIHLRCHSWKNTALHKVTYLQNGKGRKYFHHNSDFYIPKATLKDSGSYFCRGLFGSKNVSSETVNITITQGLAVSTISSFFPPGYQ

mouse FcγRIV [5] = target: T4, mouse FcγRIV; assay: SPR (IBIS MX96): mAb printed on the chip, recombinant FcγR injected at 10 to 0.005 µM; axis 'KD, M^-1', that is the reciprocal of KD
mouse FcγRIIb [6] = target: T3, mouse FcγRIIb; assay: as above
human FcγR3B [7] = target: T7, human FcγR3B; assay: as above
[8] = target: T9, EBOV GP displayed on vesicular stomatitis virus (VSV) pseudovirions (Ebola virus, UniProt Q05320 33-676); assay: cell-based or functional assay
T9 sequence: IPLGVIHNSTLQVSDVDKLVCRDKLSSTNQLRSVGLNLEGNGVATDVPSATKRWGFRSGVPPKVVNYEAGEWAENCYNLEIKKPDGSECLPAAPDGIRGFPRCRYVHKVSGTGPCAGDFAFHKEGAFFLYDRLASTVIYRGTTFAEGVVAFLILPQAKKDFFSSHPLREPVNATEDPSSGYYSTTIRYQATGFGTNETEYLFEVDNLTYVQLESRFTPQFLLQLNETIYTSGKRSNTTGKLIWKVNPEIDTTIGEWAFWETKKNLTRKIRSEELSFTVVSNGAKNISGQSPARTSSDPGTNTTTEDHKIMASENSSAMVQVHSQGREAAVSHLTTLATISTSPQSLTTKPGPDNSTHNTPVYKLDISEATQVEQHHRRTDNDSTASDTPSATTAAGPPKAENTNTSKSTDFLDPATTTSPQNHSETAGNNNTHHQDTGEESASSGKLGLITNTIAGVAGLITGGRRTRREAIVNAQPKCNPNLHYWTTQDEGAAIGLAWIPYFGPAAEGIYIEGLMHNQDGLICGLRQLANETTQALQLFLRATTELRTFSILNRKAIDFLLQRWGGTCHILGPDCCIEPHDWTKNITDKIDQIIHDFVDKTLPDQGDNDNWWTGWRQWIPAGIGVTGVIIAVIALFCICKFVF

human FcγR3B [9] = target: T7, human FcγR3B; assay: SPR, mAb printed on chip, FcγR injected; ND = not detected
mouse FcγRIIb [10] = target: T3, mouse FcγRIIb; assay: BLI, mAb on anti-human Fab-CH1 sensor, FcγR in solution; remark: listed apart in the source
human FcγR2A (R131) [11] = target: T5, human FcγR2A (R131); assay: SPR, mAb printed on chip, FcγR injected; remark: listed apart in the source

B1: VIC16-IgG1 (antibody)
heavy: not shown
light: DIVITQDTASLAVSRGQRATISCRASESVEYYGTTLMQWYQQRPGQPPKLLIYGASNVESGVPARFSGSGSGTDFSLNIHPVEEDDIAMYFCQQSRKVPYTFGGGTKLEIKRTVAAPSVFIFPPSDEQLKSGTASVVCLLNNFYPREAKVQWKVDNALQSGNSQESVTEQDSKDSTYSLSSTLTLSKADYEKHKVYACEVTHQGLSSPVTKSFNRGEC
notes: also called VIC16 human IgG1; wild type IgG1
Mouse FcγRIII
  Kd: 2830 nM
  fold-change relative to IgG1: 1 fold
Mouse FcγRI
  Kd: 80 nM
  fold-change relative to IgG1: 1 fold
Mouse FcγRIIb [1]
  Kd: 14900 nM
  fold-change relative to IgG1: 1 fold
Mouse FcγRIV [2]
  Kd: 240 nM
  fold-change relative to IgG1: 1 fold
Human FcγR2A (R131) [3]
  Kd: 30000 nM
  fold-change relative to IgG1: 1 fold
Human FcγR2B
  Kd: 23000 nM
  fold-change relative to IgG1: 1 fold
Human FcγR3B [4]
  Kd: 25000 nM
  fold-change relative to IgG1: 1 fold
Human FcγR3A (F158)
  Kd: 6100 nM
  fold-change relative to IgG1: 1 fold

B2: VIC16-SELF (antibody)
heavy: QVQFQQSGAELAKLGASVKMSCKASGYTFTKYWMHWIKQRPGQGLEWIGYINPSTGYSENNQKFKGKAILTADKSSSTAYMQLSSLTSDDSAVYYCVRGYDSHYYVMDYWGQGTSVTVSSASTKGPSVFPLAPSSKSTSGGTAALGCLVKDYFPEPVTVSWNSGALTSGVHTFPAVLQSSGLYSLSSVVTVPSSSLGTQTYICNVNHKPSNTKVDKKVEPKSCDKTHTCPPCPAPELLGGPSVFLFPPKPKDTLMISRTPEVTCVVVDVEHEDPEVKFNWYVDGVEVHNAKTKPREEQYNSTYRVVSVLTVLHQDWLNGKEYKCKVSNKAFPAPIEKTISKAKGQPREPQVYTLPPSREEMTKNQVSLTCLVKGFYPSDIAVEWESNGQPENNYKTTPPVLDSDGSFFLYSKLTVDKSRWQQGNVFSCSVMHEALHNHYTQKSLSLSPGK
light: B1 light
Mouse FcγRIV [5]
  binding result: binds

B3: VIC16-E333A (antibody)
heavy: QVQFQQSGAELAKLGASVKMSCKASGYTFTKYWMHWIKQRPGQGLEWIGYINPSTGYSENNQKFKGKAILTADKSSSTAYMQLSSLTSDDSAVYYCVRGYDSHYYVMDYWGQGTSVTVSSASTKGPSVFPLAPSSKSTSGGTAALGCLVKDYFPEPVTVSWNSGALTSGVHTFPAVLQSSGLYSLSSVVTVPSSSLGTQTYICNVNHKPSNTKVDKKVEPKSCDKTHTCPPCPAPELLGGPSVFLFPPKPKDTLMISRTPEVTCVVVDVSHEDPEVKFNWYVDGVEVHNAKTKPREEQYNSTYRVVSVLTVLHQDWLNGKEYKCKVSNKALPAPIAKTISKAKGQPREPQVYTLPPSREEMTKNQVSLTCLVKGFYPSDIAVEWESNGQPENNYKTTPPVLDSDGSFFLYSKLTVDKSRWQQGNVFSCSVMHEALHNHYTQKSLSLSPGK
light: B1 light
Mouse FcγRIIb [6]
  binding result: binds

B4: VIC16-SAEAKA (antibody)
heavy: QVQFQQSGAELAKLGASVKMSCKASGYTFTKYWMHWIKQRPGQGLEWIGYINPSTGYSENNQKFKGKAILTADKSSSTAYMQLSSLTSDDSAVYYCVRGYDSHYYVMDYWGQGTSVTVSSASTKGPSVFPLAPSSKSTSGGTAALGCLVKDYFPEPVTVSWNSGALTSGVHTFPAVLQSSGLYSLSSVVTVPSSSLGTQTYICNVNHKPSNTKVDKKVEPKSCDKTHTCPPCPAPELLGGPSVFLFPPKPKDTLMISRTPEVTCVVVDVSHEDPEVKFNWYVDGVEVHNAKTKPREEQYNATYRVVSVLTVLHQDWLNGKEYKCKVSNKALPAPIAATISKAKGQPREPQVYTLPPSREEMTKNQVSLTCLVKGFYPSDIAVEWESNGQPENNYKTTPPVLDSDGSFFLYSKLTVDKSRWQQGNVFSCSVMHEALHNHYTQKSLSLSPGK
light: B1 light
Mouse FcγRIIb [6]
  binding result: binds
Mouse FcγRIV [5]
  binding result: binds

B5: VIC16-K326W (antibody)
heavy: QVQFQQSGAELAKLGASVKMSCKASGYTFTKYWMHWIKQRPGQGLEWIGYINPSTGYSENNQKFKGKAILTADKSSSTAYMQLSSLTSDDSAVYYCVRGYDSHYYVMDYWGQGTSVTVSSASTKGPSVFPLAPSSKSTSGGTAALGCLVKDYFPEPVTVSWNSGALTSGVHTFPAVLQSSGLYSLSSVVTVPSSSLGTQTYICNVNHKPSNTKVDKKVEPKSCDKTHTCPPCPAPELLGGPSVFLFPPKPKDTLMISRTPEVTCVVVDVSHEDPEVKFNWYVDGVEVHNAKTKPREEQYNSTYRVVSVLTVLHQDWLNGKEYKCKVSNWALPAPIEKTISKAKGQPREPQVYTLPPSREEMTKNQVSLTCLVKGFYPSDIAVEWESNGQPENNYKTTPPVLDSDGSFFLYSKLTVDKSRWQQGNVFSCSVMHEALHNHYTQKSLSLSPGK
light: B1 light
Mouse FcγRIV [5]
  binding result: binds

B6: VIC16-SDIESA-LS (antibody)
heavy: B4 heavy with S242D, I335E, A336E, A337K, M431L, N437S
light: B1 light
Human FcγR3B [7]
  binding result: binds
Mouse FcγRIV [5]
  binding result: binds

B7: VIC16-SAEAKA-LS (antibody)
heavy: B4 heavy with M431L, N437S
light: B1 light
Human FcγR3B [7]
  binding result: binds
Mouse FcγRIIb [6]
  binding result: binds
Mouse FcγRIV [5]
  binding result: binds

B8: VIC16-EANA (antibody)
heavy: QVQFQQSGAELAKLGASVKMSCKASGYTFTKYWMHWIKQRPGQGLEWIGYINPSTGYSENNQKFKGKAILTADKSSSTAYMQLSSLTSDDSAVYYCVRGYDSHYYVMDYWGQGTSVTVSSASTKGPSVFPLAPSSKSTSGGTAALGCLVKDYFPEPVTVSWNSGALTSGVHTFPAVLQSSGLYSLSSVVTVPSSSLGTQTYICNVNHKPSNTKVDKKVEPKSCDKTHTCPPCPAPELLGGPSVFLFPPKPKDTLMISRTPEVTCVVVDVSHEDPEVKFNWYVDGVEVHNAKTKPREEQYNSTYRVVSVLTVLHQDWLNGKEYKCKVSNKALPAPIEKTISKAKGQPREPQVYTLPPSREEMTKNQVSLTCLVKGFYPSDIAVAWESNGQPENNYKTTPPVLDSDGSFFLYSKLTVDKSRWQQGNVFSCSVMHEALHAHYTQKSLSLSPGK
light: B1 light
Mouse FcγRIIb [6]
  binding result: binds

B9: VIC16-KWES (antibody)
heavy: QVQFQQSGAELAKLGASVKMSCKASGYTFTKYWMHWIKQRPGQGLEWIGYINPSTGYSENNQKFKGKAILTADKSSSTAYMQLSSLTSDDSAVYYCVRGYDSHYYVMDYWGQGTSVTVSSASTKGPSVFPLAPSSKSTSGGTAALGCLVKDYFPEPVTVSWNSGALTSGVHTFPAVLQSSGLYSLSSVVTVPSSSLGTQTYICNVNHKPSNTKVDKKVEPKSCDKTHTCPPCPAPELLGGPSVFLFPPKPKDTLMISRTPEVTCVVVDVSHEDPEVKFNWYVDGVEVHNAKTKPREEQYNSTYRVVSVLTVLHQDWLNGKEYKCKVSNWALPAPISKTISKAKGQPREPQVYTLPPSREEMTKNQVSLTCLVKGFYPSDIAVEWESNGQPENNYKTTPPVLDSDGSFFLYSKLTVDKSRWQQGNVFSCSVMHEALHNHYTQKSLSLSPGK
light: B1 light
Mouse FcγRIII
  Kd: 20 nM
  fold-change relative to IgG1: 0.94 fold
Mouse FcγRI
  Kd: 70 nM
  fold-change relative to IgG1: 1.1 fold
Mouse FcγRIIb [1]
  Kd: 46000 nM
  fold-change relative to IgG1: 0.3 fold
Mouse FcγRIV [2]
  Kd: 160 nM
  fold-change relative to IgG1: 1.5 fold
[8]
  IC50, neutralization of VSV pseudotyped to display EBOV GP: < 1 µg/mL
Human FcγR2A (R131) [3]
  Kd: 8600 nM
  fold-change relative to IgG1: 3.4 fold
Human FcγR2B
  Kd: 224000 nM
  fold-change relative to IgG1: 0.12 fold
Human FcγR3A (F158)
  Kd: 1600 nM
  fold-change relative to IgG1: 3.8 fold
Human FcγR3B [9]
  binding result: no binding (tested: FcγR 10 µM to 0.005 µM)

B10: VIC16-DVNH (antibody)
heavy: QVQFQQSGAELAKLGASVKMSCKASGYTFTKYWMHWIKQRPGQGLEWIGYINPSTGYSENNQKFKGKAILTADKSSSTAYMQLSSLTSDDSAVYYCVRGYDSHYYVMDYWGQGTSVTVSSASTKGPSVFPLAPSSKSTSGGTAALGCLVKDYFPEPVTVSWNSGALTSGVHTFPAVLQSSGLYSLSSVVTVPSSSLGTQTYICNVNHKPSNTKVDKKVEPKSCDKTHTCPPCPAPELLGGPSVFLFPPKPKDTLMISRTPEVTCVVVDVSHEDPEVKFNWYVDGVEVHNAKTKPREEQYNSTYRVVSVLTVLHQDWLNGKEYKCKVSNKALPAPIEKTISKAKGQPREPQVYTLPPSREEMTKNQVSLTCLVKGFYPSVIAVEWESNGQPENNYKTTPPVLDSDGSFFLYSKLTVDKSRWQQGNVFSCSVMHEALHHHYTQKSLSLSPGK
light: B1 light
Mouse FcγRIV [5]
  binding result: binds

B11: VIC16-MLNS (antibody)
heavy: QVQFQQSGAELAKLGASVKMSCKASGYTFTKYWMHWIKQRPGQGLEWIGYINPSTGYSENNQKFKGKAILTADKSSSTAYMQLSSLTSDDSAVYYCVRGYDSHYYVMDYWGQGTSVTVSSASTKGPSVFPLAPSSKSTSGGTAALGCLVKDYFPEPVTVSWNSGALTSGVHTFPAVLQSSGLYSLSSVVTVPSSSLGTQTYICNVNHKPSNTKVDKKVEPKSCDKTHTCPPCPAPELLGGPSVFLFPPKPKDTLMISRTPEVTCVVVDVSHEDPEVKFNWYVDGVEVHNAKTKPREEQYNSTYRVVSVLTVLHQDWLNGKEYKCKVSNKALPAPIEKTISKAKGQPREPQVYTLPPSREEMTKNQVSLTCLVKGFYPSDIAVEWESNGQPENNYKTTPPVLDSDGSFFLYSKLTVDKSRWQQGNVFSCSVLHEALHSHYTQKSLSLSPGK
light: B1 light
Mouse FcγRIV [5]
  binding result: binds

B12: VIC16-EFTEA (antibody)
heavy: B4 heavy with G239A, S270E, H271F, A301S, S327T, I335E, A336E, A337K
light: B1 light
Mouse FcγRIIb [10]
  fold increase in binding: 2 fold
Mouse FcγRIII
  Kd: 1100 nM
  fold-change relative to IgG1: 9 fold
Mouse FcγRI
  Kd: 60 nM
  fold-change relative to IgG1: 1.3 fold
Mouse FcγRIIb [1]
  Kd: 490 nM
  fold-change relative to IgG1: 30 fold
Mouse FcγRIV [2]
  Kd: 120 nM
  fold-change relative to IgG1: 2 fold
[8]
  IC50, neutralization of VSV pseudotyped to display EBOV GP: < 1 µg/mL
Human FcγR2A (R131) [11]
  fold higher KD compared to IgG1: 120 fold
Human FcγR2A (R131) [3]
  Kd: 252 nM
  fold-change relative to IgG1: 119 fold
Human FcγR2B
  Kd: 1200 nM
  fold-change relative to IgG1: 19 fold
Human FcγR3B [4]
  Kd: 475000 nM
  fold-change relative to IgG1: 0.05 fold
Human FcγR3A (F158)
  Kd: 6100 nM
  fold-change relative to IgG1: 1 fold
